How the values were obtained:
thrombin = thrombin (UniProt P00734+P00734); assay: FP
FOXM1 = target: T1, FOXM1 (UniProt Q08050); details: PS; cited from earlier work
T1 sequence: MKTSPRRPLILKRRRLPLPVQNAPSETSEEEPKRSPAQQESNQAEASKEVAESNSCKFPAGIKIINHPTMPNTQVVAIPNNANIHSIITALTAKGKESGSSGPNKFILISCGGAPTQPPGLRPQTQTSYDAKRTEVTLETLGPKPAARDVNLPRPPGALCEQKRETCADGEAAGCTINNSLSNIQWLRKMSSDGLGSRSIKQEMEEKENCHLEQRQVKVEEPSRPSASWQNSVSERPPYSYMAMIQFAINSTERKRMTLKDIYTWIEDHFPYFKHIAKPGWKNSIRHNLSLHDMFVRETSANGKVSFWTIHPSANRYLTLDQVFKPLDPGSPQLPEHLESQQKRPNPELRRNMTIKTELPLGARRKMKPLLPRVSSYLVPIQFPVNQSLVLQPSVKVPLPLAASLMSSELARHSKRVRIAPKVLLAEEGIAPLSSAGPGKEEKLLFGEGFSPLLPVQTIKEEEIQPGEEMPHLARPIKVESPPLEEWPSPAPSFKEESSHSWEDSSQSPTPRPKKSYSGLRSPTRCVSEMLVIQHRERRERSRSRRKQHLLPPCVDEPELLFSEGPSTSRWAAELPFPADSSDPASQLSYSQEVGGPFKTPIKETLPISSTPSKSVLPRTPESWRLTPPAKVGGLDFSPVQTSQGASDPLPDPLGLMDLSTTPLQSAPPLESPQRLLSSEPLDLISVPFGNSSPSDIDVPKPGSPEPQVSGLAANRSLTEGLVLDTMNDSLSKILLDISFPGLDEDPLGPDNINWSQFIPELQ

For GGTTGGTGTGGTTGG [TBA(3)-2b], which Kd (thrombin; T3 replaced by 5-ethynyl-dU clicked to inactivated N-acyl sulfonamide biotin warhead 2b) is on record?
The Kd was 395 nM.

Which Kd (thrombin; T9 replaced by 5-ethynyl-dU clicked to inactivated N-acyl sulfonamide biotin warhead 2b) does the source give for GGTTGGTGTGGTTGG [TBA(9)-2b] here?
Its Kd is 520 nM.

With “TCACTTCACACCGCATCTCTACGTCCGGTTGCGCTTTCCTTT [FBA]” as the sequence, how does the Kd (FOXM1) read?
Its Kd is 65 nM.
